{
  "source": "paper PMC7064531",
  "about": "(2020)",
  "binders": {"B1": {"name": "hRpn10^322–366 peptide with Y326 phosphorylated (peptide)", "chain": "EEDD[pY]DVMQDPEFLQSVLENLPGVDPNNEAIRNAMGSLASQATKD", "modifications": "not fully specified"}, "B2": {"name": "GST-hRpn10^305–377 (domain or fragment)", "chain": "SADIDASSAMDTSEPAKEEDDYDVMQDPEFLQSVLENLPGVDPNNEAIRNAMGSLASQATKDGKKDKKEEDKK"}, "B3": {"name": "hRpn10^322–366 peptide (peptide)", "chain": "EEDDYDVMQDPEFLQSVLENLPGVDPNNEAIRNAMGSLASQATKD"}},
  "key": {"[1]": {"target": "T1, E6AP AZUL (amino-terminal zinc-binding domain of ubiquitin E3a ligase), amino acids 24 to 87 (human, UniProt Q05086 24-87)", "T1 chain": "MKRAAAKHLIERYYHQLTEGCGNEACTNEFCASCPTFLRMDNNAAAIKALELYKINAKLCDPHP", "assay": "ITC; Y326 phosphorylated"}, "[2]": {"target": "T1, E6AP AZUL (amino-terminal zinc-binding …)", "assay": "ITC; Y326 phosphorylated"}, "[3]": {"target": "T1, E6AP AZUL (amino-terminal zinc-binding …)", "assay": "SPR"}, "[4]": {"target": "T1, E6AP AZUL (amino-terminal zinc-binding …)", "assay": "ITC"}, "[5]": {"target": "T1, E6AP AZUL (amino-terminal zinc-binding …)", "assay": "ITC"}},
  "note": "Where no end group is shown, it is not given here. [ ]: non-standard residue; d: D form. pY = N[C@@H](Cc1ccc(OP(=O)(O)O)cc1)C(=O)O",
  "data": [
    {"binder": "B1", "values": [
      {"measurement": "Kd", "setting": "[1]", "result": 189, "unit": "nM"},
      {"measurement": "Kd", "setting": "[2]", "result": 189, "unit": "nM"}
    ]},
    {"binder": "B2", "values": [
      {"measurement": "koff", "setting": "[3]", "result": 0.0211, "unit": "s⁻¹"}
    ]},
    {"binder": "B3", "values": [
      {"measurement": "Kd", "setting": "[4]", "result": 18.2, "unit": "nM"},
      {"measurement": "Kd", "setting": "[5]", "result": 18.2, "unit": "nM"}
    ]}
  ]
}
